This assay has as its target C. reinhardtii Rubisco (CrRubisco), L8S8 holoenzyme (C. reinhardtii (endogenous in strain CC-2677)) (UniProt P00877). The assay can be described thus: co-sedimentation; droplet sedimentation assay of demixed (phase-separated) EPYC1-Rubisco droplets, with microscopy: 10 µl reactions, 10 min, 20 mM Tris-HCl pH 8.0, 50 mM NaCl, room temperature, 21,100 x g, SDS-PAGE and densitometry of pellet and supernatant.

The text below walks through data of article PMC6265248.

Regarding “Essential Pyrenoid Component 1 (EPYC1), residues 46-317 (natural protein)”, the stoichiometry N (EPYC1:Rubisco) was 1 to 4 and the stoichiometry N (EPYC1 molecules per Rubisco holoenzyme) came to 2.
